From the supplement of paper PMC10724198
± gives the standard deviation of the averaged measurements.

System: Saccharomyces cerevisiae
Assay: protein stability index of tFT-peptide fusion (C-terminal peptide) (PSI (0-1 scale)); higher = more stable (slower turnover)
Settings: temperature: 30 C
Protocol: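 MPS profiling in S. cerevisiae of the yeast C-terminome library: the last 12 aa of each annotated ORF are fused to the C-terminus of a sfGFP-mCherry timer, after a GGGS linker. Cells are FACS-sorted into 8 mCherry/sfGFP bins and deep-sequenced. PSI runs from 0 (unstable) to 1 (stable); wild type and das1Δ backgrounds, two technical replicates each.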

[1] = genetic background: das1 deletion

SILRIDDIAFSR [CCT4 C-terminal 12 aa]
protein stability index [1]: 0.739 ± 0.033 | protein stability index (genetic background: wild type): 0.71 ± 0.034

SIYILNVIRNAQ [YGR117C C-terminal 12 aa]
protein stability index [1]: 0.6687 ± 0.0012 | protein stability index (genetic background: wild type): 0.538 ± 0.0088

SKEKARALGSNF [GTT1 C-terminal 12 aa]
protein stability index [1]: 0.712 ± 0.016 | protein stability index (genetic background: wild type): 0.686 ± 0.013

SKGSPINTQYVF [AGA2 C-terminal 12 aa]
protein stability index [1]: 0.731 ± 0.02 | protein stability index (genetic background: wild type): 0.732 ± 0.056

SKKTTISAKKQQ [SGE1 C-terminal 12 aa]
protein stability index [1]: 0.713 ± 0.014 | protein stability index (genetic background: wild type): 0.51092 ± 0.00037

SKQEKPLSRPKD [GPI15 C-terminal 12 aa]
protein stability index [1]: 0.718 ± 0.013 | protein stability index (genetic background: wild type): 0.684 ± 0.022

SKSFPTAGEMRA [PET8 C-terminal 12 aa]
protein stability index [1]: 0.711 ± 0.035 | protein stability index (genetic background: wild type): 0.7283 ± 0.0038

SKTSHNPNEQSV [PDR11 C-terminal 12 aa]
protein stability index [1]: 0.6953 ± 0.0037 | protein stability index (genetic background: wild type): 0.687 ± 0.025

SKYNCNIPACCV [YLR122C C-terminal 12 aa]
protein stability index [1]: 0.654 ± 0.017 | protein stability index (genetic background: wild type): 0.6636 ± 0.0051

SLDGDTYFIIRS [YDL158C C-terminal 12 aa]
protein stability index [1]: 0.713 ± 0.024 | protein stability index (genetic background: wild type): 0.688 ± 0.033

SLRIEAIKKGFV [SPS1 C-terminal 12 aa]
protein stability index [1]: 0.727 ± 0.048 | protein stability index (genetic background: wild type): 0.675 ± 0.029

SMDEEFKNMDCI [SIR3 C-terminal 12 aa]
protein stability index [1]: 0.706 ± 0.0084 | protein stability index (genetic background: wild type): 0.701 ± 0.05

SNKKLKSQWLIK [EMC1 C-terminal 12 aa]
protein stability index [1]: 0.722 ± 0.017 | protein stability index (genetic background: wild type): 0.665 ± 0.0081

SNNPKLHHAKEA [MEP3 C-terminal 12 aa]
protein stability index [1]: 0.696 ± 0.041 | protein stability index (genetic background: wild type): 0.375 ± 0.013

SQAGLMSNEEVL [CCC2 C-terminal 12 aa]
protein stability index [1]: 0.69664 ± 0.00011 | protein stability index (genetic background: wild type): 0.699 ± 0.022

SQRPAKGVPEGF [VPS72 C-terminal 12 aa]
protein stability index [1]: 0.69 ± 0.024 | protein stability index (genetic background: wild type): 0.733 ± 0.051

SRFDYLTRKNAL [CBK1 C-terminal 12 aa]
protein stability index [1]: 0.6716 ± 0.0016 | protein stability index (genetic background: wild type): 0.71 ± 0.051

SRFEVACEQKAA [BSC2 C-terminal 12 aa]
protein stability index [1]: 0.579 ± 0.019 | protein stability index (genetic background: wild type): 0.592 ± 0.019

SRFRTNRLKGDQ [YNL042W-B C-terminal 12 aa]
protein stability index [1]: 0.699 ± 0.027 | protein stability index (genetic background: wild type): 0.689 ± 0.026

SRLKKEFEAAAL [IDP2 C-terminal 12 aa]
protein stability index [1]: 0.6762 ± 0.0031 | protein stability index (genetic background: wild type): 0.678 ± 0.085

SSGADNSASSNQ [PAM16 C-terminal 12 aa]
protein stability index [1]: 0.684 ± 0.014 | protein stability index (genetic background: wild type): 0.667 ± 0.029

SSSLSPSLSSWP [YJL020W-A C-terminal 12 aa]
protein stability index [1]: 0.739 ± 0.051 | protein stability index (genetic background: wild type): 0.778 ± 0.17

SSTGTPEHDQDT [EUC1 C-terminal 12 aa]
protein stability index [1]: 0.69 ± 0.0083 | protein stability index (genetic background: wild type): 0.682 ± 0.025

STATGKLKKRKM [RAD2 C-terminal 12 aa]
protein stability index [1]: 0.718 ± 0.023 | protein stability index (genetic background: wild type): 0.649 ± 0.021

STFSIVSSISLW [YPL044C C-terminal 12 aa]
protein stability index [1]: 0.6894 ± 0.0026 | protein stability index (genetic background: wild type): 0.665 ± 0.057

STPIAIGIMNIL [YDR271C C-terminal 12 aa]
protein stability index [1]: 0.674 ± 0.018 | protein stability index (genetic background: wild type): 0.697 ± 0.0089

STSSLKRQRTDF [REX2 C-terminal 12 aa]
protein stability index [1]: 0.718 ± 0.011 | protein stability index (genetic background: wild type): 0.712 ± 0.017

STTADSTTNSAN [YLR146W-A C-terminal 12 aa]
protein stability index [1]: 0.696 ± 0.014 | protein stability index (genetic background: wild type): 0.664 ± 0.011

SVFLLNITYLLD [YOR314W C-terminal 12 aa]
protein stability index [1]: 0.236 ± 0.0099 | protein stability index (genetic background: wild type): 0.268 ± 0.018

SVTFFIQDILCL [YPL073C C-terminal 12 aa]
protein stability index [1]: 0.389 ± 0.019 | protein stability index (genetic background: wild type): 0.407 ± 0.015

SWINLDFNDGDE [MDM12 C-terminal 12 aa]
protein stability index [1]: 0.6957 ± 0.004 | protein stability index (genetic background: wild type): 0.67488 ± 0.00028

SYRVMQPNEFES [YGL214W C-terminal 12 aa]
protein stability index [1]: 0.7 ± 0.016 | protein stability index (genetic background: wild type): 0.711 ± 0.11

TAAQILKKQNRL [YDR541C C-terminal 12 aa]
protein stability index [1]: 0.6454 ± 0.0021 | protein stability index (genetic background: wild type): 0.704 ± 0.063

TALLENDANLIS [ERV15 C-terminal 12 aa]
protein stability index [1]: 0.703 ± 0.019 | protein stability index (genetic background: wild type): 0.703 ± 0.021

TALNSGRSRDVK [YJL027C C-terminal 12 aa]
protein stability index [1]: 0.6821 ± 0.0027 | protein stability index (genetic background: wild type): 0.678 ± 0.019

TCLTGEVIFPPR [NPC2 C-terminal 12 aa]
protein stability index [1]: 0.7115 ± 0.0058 | protein stability index (genetic background: wild type): 0.72 ± 0.017

TDGLNVWKTISV [RRB1 C-terminal 12 aa]
protein stability index [1]: 0.661 ± 0.023 | protein stability index (genetic background: wild type): 0.6468 ± 0.0058

TEDKNKALESAQ [VPS60 C-terminal 12 aa]
protein stability index [1]: 0.702 ± 0.013 | protein stability index (genetic background: wild type): 0.6706 ± 0.0056

TEDQFKENGVKK [ICL1 C-terminal 12 aa]
protein stability index [1]: 0.703 ± 0.033 | protein stability index (genetic background: wild type): 0.716 ± 0.065

TEEMKDAEEMKQ [RIX7 C-terminal 12 aa]
protein stability index [1]: 0.685 ± 0.014 | protein stability index (genetic background: wild type): 0.661 ± 0.017

TEFMNFWINVLP [RSC4 C-terminal 12 aa]
protein stability index [1]: 0.725 ± 0.028 | protein stability index (genetic background: wild type): 0.715 ± 0.02
